Columns and labels:
[1] = biological target: FGF2-C-His (C-terminal 6xHis tagged 18 kDa human FGF2) (human) (UniProt P09038); assay: AlphaScreen or HTRF; N-N orientation: FGF2-C-His bound to both Ni chelate donor and acceptor beads, increasing FGF2-C-His (0-75.5 µM)
[2] = biological target: FGF2-C-His (C-terminal 6xHis tagged 18 kDa human FGF2) (human) (UniProt P09038); assay: AlphaScreen or HTRF; N-N orientation, competition: 1 µM FGF2-C-His on Ni chelate donor and acceptor beads with increasing competitor
[3] = biological target: FGF2-C-His (C-terminal 6xHis tagged 18 kDa human FGF2) (human) (UniProt P09038); assay: AlphaScreen or HTRF; C-N orientation, competition: 50 nM FGF2-N-GST and 50 nM FGF2-C-His with increasing competitor, added 30 min before the beads; signal as percent of control without competitor

| Substance | EC50 [1] [nM] | IC50 [2] [nM] | IC50 [3] [nM] |
| --- | --- | --- | --- |
| FGF2-C-His (C-terminal 6xHis tagged 18 kDa human FGF2) (from UniProt P09038-2 1-155) (natural protein) | 6350 |  |  |
| FGF2-N-GST (N-terminal GST tagged 18 kDa human FGF2) (from UniProt P09038-2 1-155) (natural protein) |  | 620 |  |
| Tag-less FGF2 (from UniProt P09038 143-288) (natural protein) |  |  | 180 |
| platelet factor 4 (PF4) (natural protein) |  | 9560 | 265 |

From article PMC4192534
